Measured values reported in patent US20200087394A1.

Biological target: CD16 receptor on Jurkat-hCD16aF cells (human) (UniProt P08637)
Test: cell-based or functional assay

CD16 receptor on Jurkat-hCD16aF cells (human), sequence (P08637 17-254): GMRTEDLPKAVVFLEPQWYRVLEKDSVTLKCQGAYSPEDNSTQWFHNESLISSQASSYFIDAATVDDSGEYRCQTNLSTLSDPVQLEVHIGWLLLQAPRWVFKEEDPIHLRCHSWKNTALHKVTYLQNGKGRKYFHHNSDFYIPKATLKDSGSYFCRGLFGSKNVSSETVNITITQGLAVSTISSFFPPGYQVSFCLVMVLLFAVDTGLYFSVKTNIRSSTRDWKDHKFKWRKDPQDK

Substance	quantity of antibody required to induce 1000 pg of IL-2 from Jurkat-hCD16aF cells with PD-L1 aAPC/CHO-K1 target cells (ng per 1000 pg of IL-2)
Anti-PDL1|atezolizumab|Fc-WT (CHOs) (from UniProt P01857 1-330) (antibody)	> 1250
Anti-PDL1|durvalumab|Fc-WT (CHOs) (from UniProt P01857 1-330) (antibody)	> 1250
